Source: article PMC2139831 (The Journal of Cell Biology, 1997)

What was measured:
Assay in all cases: two-hybrid
Cdc10p (S. cerevisiae) = Cdc10p (S. cerevisiae) (UniProt P25342)
Chs4p (S. cerevisiae) = Chs4p (S. cerevisiae) (UniProt P34226)
[1] = target: Chs4p^C693S (S. cerevisiae) (UniProt P34226)
Chs4p = target: T1, Chs4p (S. cerevisiae, UniProt P34226 1-696)
T1 sequence (looked up): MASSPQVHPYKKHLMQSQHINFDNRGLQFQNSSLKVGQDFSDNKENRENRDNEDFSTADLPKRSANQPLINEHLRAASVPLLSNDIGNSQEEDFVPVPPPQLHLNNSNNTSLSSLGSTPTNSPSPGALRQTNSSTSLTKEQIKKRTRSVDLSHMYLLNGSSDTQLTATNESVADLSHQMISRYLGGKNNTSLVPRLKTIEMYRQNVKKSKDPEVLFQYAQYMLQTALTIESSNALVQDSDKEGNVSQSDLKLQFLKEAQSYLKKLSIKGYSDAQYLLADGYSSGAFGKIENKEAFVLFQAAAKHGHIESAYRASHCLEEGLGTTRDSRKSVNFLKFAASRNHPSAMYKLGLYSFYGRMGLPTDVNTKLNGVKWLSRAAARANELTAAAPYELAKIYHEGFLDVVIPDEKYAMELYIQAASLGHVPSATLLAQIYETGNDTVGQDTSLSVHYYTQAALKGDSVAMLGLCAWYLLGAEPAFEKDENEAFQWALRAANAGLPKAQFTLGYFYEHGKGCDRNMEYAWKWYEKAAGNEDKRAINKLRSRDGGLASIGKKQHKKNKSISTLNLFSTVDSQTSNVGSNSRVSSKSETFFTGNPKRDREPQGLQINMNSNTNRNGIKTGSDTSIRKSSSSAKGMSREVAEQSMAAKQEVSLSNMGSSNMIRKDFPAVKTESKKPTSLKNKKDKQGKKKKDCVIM

Chs4p^C693S = target: T2, Chs4p^C693S (S. cerevisiae, UniProt P34226 1-696, C693S)
T2 sequence (looked up): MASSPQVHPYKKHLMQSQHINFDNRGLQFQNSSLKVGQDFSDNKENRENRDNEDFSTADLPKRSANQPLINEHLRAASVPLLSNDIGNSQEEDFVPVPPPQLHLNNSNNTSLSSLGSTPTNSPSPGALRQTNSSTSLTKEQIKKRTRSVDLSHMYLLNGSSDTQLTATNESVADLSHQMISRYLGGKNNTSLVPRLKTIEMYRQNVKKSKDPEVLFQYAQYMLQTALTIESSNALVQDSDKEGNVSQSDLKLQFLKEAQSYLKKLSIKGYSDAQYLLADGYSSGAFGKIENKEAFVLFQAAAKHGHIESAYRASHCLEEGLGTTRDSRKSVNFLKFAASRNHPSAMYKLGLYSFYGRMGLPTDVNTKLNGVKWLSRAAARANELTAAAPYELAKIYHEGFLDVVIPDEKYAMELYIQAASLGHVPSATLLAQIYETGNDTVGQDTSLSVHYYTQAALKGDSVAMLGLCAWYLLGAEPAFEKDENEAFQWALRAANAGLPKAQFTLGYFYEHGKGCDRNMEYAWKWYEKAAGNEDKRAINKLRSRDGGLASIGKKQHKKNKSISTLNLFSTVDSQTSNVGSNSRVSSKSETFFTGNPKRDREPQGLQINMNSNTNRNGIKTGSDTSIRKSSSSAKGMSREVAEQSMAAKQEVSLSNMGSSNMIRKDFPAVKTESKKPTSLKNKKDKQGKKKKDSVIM

two-hybrid = target: the molecule itself

Cdc10p (S. cerevisiae), sequence (P25342 whole entry): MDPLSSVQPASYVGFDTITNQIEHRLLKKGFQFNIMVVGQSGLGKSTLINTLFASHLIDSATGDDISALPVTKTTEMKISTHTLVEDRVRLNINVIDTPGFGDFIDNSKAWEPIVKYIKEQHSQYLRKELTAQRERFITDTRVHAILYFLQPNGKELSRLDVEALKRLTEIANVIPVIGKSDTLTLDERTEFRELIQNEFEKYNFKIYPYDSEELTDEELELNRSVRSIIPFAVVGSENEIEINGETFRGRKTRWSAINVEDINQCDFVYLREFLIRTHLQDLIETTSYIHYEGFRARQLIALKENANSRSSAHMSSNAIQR

In the case of “Bni4pE (from UniProt P53858 65-730) (domain or fragment)”, the units of β-galactosidase activity (units of β-galactosidase activity) (Cdc10p (S. cerevisiae)) is reported as 1010, the units of β-galactosidase activity (units of β-galactosidase activity) (Chs4p (S. cerevisiae)) is reported as 238 and the units of β-galactosidase activity (units of β-galactosidase activity) [1] is reported as 2220.

B1: Chs3p^Δ700 (domain or fragment, S. cerevisiae, UniProt P29465 1-700, looked up)
chain: MTGLNGDDPDDYYLNLNQDEESLLRSRHSVGSGAPHRQGSLVRPERSRLNNPDNPHFYYAQKTQEQMNHLDVLPSSTGVNPNATRRSGSLRSKGSVRSKFSGRETDSYLLQDMNTTDKKASVKISDEGVAEDEFDKDGDVDNFEESSTQPINKSIKPLRKETNDTLSFWQMYCYFITFWAPAPILAFCGMPKKERQMAWREKVALISVILYIGAIVAFLTFGFTKTVCSSSKLRLKNNEVSTEFVVINGKAYELDTSSRSGIQDVEVDSDTLYGPWSDAGKDASFLFQNVNGNCHNLITPKSNSSIPHDDDNNLAWYFPCKLKNQDGSSKPNFTVENYAGWNCHTSKEDRDAFYGLKSKADVYFTWDGIKNSSRNLIVYNGDVLDLDLLDWLEKDDVDYPVVFDDLKTSNLQGYDLSLVLSNGHERKIARCLSEIIKVGEVDSKTVGCIASDVVLYVSLVFILSVVIIKFIIACYFRWTVARKQGAYIVDNKTMDKHTNDIEDWSNNIQTKAPLKEVDPHLRPKKYSKKSLGHKRASTFDLLKKHSSKMFQFNESVIDLDTSMSSSLQSSGSYRGMTTMTTQNAWKLSNENKAVHSRNPSTLLPTSSMFWNKATSSPVPGSSLIQSLDSTIIHPDIVQQPPLDFMPYGFPLIHTICFVTCYSEDEEGLRTTLDSLSTTDYPNSHKLLMVVCDGLIKGSGN
B1 was tested, and the “units of β-galactosidase activity” value (Chs4p) was 617 units of β-galactosidase activity, the “units of β-galactosidase activity” value (Chs4p^C693S) was 568 units of β-galactosidase activity and the “units of β-galactosidase activity” value (two-hybrid) was 123 units of β-galactosidase activity.
